Assay results from patent publication US20230127694A1, “NEUROPROTECTIVE PEPTIDE” (published 2023).
Non-standard residues stand in square brackets, D forms with d. No end group written: not given here.

Target: ERK1 MAP kinase (MAPK3), mouse (mouse, UniProt Q63844)
Experiment: cell-based or functional assay

Question: For Ac-GRKKRRQRRRPPQGGGGGEPRRTEGVGPGVPGEVEMVKGQPFD[dV] [CPP-RB5], which “EC50 of phospho-ERK positive cells in striatal slices (immunohistochemistry, dose response)” value is on record?
Answer: 3.4 µM
